What was measured:
Test in all cases: cell-based or functional assay
[1] = molecular target: CD3 (TCR/CD3 complex) on Jurkat cells
[2] = molecular target: CD28 ligand B7-1 on mouse lymph node accessory cells (mouse) (UniProt Q00609)
[3] = molecular target: CD28 ligand B7-2 on mouse lymph node accessory cells (mouse) (UniProt P42082)
[4] = molecular target: Fas cell surface receptor (human) (UniProt P25445)
UniProt P25445, sequence (P25445 26-335): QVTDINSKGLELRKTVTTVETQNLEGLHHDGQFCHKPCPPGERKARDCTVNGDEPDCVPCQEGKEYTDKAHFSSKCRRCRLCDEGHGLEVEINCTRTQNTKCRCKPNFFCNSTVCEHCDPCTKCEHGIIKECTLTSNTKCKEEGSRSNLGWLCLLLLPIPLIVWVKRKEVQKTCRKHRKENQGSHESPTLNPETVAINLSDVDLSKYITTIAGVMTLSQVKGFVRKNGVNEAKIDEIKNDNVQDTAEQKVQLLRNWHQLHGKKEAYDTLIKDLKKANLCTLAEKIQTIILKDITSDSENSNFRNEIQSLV

UniProt Q00609, sequence (Q00609 38-306): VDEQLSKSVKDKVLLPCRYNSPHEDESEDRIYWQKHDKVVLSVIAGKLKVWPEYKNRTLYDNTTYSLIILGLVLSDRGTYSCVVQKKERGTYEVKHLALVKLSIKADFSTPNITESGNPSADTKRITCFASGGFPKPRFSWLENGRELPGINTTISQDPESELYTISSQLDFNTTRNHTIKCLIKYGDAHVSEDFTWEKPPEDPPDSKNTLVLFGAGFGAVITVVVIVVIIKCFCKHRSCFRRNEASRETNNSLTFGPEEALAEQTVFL
UniProt P42082, sequence (P42082 24-309): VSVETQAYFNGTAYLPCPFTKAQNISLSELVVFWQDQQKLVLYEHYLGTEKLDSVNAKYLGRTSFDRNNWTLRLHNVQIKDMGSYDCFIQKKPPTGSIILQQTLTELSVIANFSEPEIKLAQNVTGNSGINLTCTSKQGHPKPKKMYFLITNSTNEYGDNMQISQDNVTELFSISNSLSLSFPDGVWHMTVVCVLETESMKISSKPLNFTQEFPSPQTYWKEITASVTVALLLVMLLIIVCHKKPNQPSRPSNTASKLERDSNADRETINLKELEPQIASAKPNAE

Substance: anti-CD3 (OKT3) (antibody)
- cell death of Neo Jurkat clones treated with plate bound anti-CD3 (propidium iodide exclusion) [1]: 30 to 60%

Substance: CTLA4Ig (from Repligen) (Fc fusion)
- viability of activated Thy-1 positive T cells at 72 hrs [2]: 20%
- viability of activated Thy-1 positive T cells at 72 hrs [3]: 20%

Substance: CH-11 anti-Fas monoclonal antibody (Panvera)
- viability (propidium iodide exclusion) of control (Neo) Jurkat transfectants treated with Fas antibody at 10 ng/ml [4]: < 10%
